Reference: patent US7910102B2 (priority 2006, dated 2011)
“Also recorded” adds a separate entry of the source.

Experiments:
[1] = biological target: T1, human Kv1.3 (Homo sapiens, UniProt P22001); assay type: cell-based
[2] = biological target: T2, human Kv1.1 (Homo sapiens, UniProt Q09470); assay type: cell-based; details: read-out: hKv1.1: IC50
T2 construct: expressed in transfected cells; host or cells: HEK293

[3] = biological target: T1, human Kv1.3; assay: Immunohistochemistry of peptibody binding to HEK 293 cells overexpressing human Kv1.3; design: expressed in transfected cells; details: 5 μg/ml peptibody
Method: Immunohistochemistry analysis of Fc-L10-ShK[1-35] binding to HEK 293 cells overexpressing human Kv1.3. HEK 293 cells overexpressing human Kv1.3 (HEK Kv1.3) were obtained from BioFocus plc (Cambridge, UK) and maintained per manufacturer's recommendation. The parental HEK 293 cell line was used as a control. Cells were plated on Poly-D-Lysine 24 well plates (#35-4414; Becton-Dickinson, Bedford, Mass.) and allowed to grow to approximately 70% confluence. HEK KV1.3 were plated at 0.5×10e5 cells/well in 1 ml/well of medium. HEK 293 cells were plated at a density of 1.5×10e5 cells/well in 1 ml/well of medium. Before staining, cells were fixed with formalin (Sigma HT50-1-1 Formalin solution, diluted 1:1 with PBS/0.5% BSA before use) by removing cell growth medium, adding 0.2 ml/well formalin solution and incubating at room temperature for ten minutes. Cells were stained by incubating with 0.2 ml/well of 5 μg/ml Fc-L10-ShK[1-35] in PBS/BSA for 30′ at room temperature. Fc-L10-ShK[1-35] was aspirated and then the cells were washed one time with PBS/0.5% BSA. Detection antibody (Goat F(ab)2 anti-human IgG-phycoerythrin; Southern Biotech Associates, Birmingham, Ala.) was added to the wells at 5 μg/ml in PBS/0.5% BSA and incubated for 30′ at room temperature. Wash cells once with PBS/0.5% BSA and examine using confocal microscopy (LSM 510 Meta Confocal Microscope; Carl Zeiss AG, Germany). […]

[4] = system: CD40L on CD4+ T cells; assay type: cell-based, human
[5] = system: T cell proliferation, human PBMCs; assay: T cell proliferation (3H-thymidine incorporation) in anti-CD3/anti-CD28 stimulated human PBMCs; assay type: cell-based; details: antibodies to CD3 and CD28
Excerpt: Inhibition of T cell proliferation following anti-CD3 and anti-CD28 antibody stimulation of PBMCs. PBMC's were previously isolated from normal human donor Leukophoresis packs, purified by density gradient centrifugation (Ficoll Hypaque), cryopreserved in CPZ Cryopreservation Medium Complete (INCELL, MCPZF-100 plus 10% DMSO final). PBMC's were thawed (95% viability), washed, and seeded at 2×10^5 cells per well in culture medium (RPMI medium 1640; GIBCO) supplemented with 10% fetal calf serum, 100 U/ml penicillin, […] streptomycin, 2 mM L-glutamine, 100 μM non-essential amino acids, and 20 μM 2-ME) in 96-well flat-bottom tissue culture plates. Cells were pre-incubated with either anti-human CD32 (FcyRII) blocking antibody (per manufacturers instructions EASY SEP Human Biotin Selection Kit #18553, StemCell Technologies Vancouver, BC) or Fc-L10-ShK (100 nM-0.001 nM final) for 45 min. Fc-L10-ShK (100 nM-0.001 nM final) was then added to the cells containing anti-human CD32 blocking antibody while medium was added to the cells containing Fc-L10-ShK. Both sets were incubated for an additional 45 min before stimulating for 48 hr with aCD3/aCD28 (0.2 ng/ml and 100 ng/ml, respectively). Final assay volume was 200 ul. […] Cells were then harvested onto glass fiber filters and radioactivity was measured in a B-scintillation counter.

[6] = system: IL-2R on CD4+ T cells; assay type: cell-based, human
[7] = biological target: T1, human Kv1.3; assay: Whole cell immunoassay (ELISA) of binding to fixed HEK 293 cells overexpressing Kv1.3; design: expressed in transfected cells
Method: Our peptibody reagent can be a useful and convenient tool for monitoring Kv1.3 channel expression in patients and have utility in diagnostic applications. The procedure shown in FIG. 34A and FIG. 34B follows.
FIG. 34A. A whole cell immunoassay was performed to show binding of intact Fc-L10-ShK[1-35] to Kv1.3 transfected HEK 293 cells (BioFocus plc, Cambridge, UK). Parent HEK 293 cells or HEK Kv1.3 cells were plated at 3×10e4 cells/well in poly-D-Lysine coated ninety-six well plates (#35-4461; Becton-Dickinson, Bedford, Mass.). Cells were fixed with formalin (Sigma HT50-1-1 Formalin solution, diluted 1:1 with PBS/0.5% BSA before use) by removing cell growth medium, adding 0.2 ml/well formalin solution and incubating at room temperature for 25 minutes and then washing one time with 100 μl/well of PBS/0.5% BSA. Wells were blocked by addition of 0.3 ml/well of BSA blocker (50-61-00; KPL 10% BSA Diluent/Blocking Solution, diluted 1:1 with PBS; KPL, Gaithersburg, Md.) followed by incubation at room temperature, with shaking, for 3 hr. Plates were washed 2 times with 1×KP Wash Buffer (50-63-00; KPL). […] Absorbance was read at 450 nm on a Molecular Devices SpectroMax 340 (Sunnyvale, Calif.).
FIG. 34B. […] Absorbances were read at 405 nm after stopping reactions by addition of 0.1 ml/well of 1% SDS.

T1 sequence (P22001 whole entry): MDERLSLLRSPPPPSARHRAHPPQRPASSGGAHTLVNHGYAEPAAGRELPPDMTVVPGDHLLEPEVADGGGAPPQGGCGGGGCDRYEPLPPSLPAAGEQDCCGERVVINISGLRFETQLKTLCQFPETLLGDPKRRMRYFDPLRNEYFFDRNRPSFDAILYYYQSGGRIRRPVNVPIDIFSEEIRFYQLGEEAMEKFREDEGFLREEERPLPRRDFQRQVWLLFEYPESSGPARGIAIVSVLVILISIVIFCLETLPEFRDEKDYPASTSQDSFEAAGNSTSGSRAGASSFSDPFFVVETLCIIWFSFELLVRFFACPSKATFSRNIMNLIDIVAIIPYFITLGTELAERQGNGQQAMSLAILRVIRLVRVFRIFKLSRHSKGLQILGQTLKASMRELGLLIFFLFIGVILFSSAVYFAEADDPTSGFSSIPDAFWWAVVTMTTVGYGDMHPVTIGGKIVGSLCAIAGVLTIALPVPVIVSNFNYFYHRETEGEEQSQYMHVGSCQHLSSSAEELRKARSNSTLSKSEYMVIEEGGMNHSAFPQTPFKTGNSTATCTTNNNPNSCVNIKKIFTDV
T2 sequence (Q09470 whole entry): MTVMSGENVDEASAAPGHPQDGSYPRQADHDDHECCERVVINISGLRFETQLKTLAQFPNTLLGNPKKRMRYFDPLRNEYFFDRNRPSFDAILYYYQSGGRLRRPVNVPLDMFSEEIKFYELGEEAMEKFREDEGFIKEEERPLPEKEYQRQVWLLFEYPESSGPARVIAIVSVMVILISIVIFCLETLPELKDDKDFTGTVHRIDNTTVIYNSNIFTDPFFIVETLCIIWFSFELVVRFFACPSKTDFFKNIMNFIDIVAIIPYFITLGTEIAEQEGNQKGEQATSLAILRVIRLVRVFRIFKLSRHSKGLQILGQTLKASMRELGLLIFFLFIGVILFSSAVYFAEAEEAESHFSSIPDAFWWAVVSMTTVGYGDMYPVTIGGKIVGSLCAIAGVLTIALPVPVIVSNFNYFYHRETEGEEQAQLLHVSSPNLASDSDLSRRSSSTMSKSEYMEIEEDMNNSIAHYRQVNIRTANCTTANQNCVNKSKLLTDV

| Substance | fold less potent than the synthetic OSK1 toxin peptide [1] | IC50 [2] | staining of Kv1.3-transfected HEK 293 cells (in words) [3] | block of thapsigargin-induced upregulation of CD40L on T cells (in words) [4] | inhibition of T cell proliferation (in words) [5] | block of thapsigargin-induced upregulation of the IL-2R on T cells (in words) [6] | binding to fixed HEK 293 cells overexpressing Kv1.3 (in words) [7] |
| --- | --- | --- | --- | --- | --- | --- | --- |
| Fc-L10-OSK1[E16K,K20D] | approximately 6 fold | > 100 nM |  |  |  |  |  |
| Fc-L10-ShK[1-35]: Fc region of human IgG1 fused in-frame to a 10 amino acid linker and the Kv1.3 inhibitor peptide ShK[1-35]; peptibody |  |  | stains HEK 293 cells stably transfected with human Kv1.3 | suppressed | inhibits T cell proliferation; also recorded: blocked T cell proliferation; also recorded: potently inhibits proliferation of T cells in a dose-dependent manner | suppressed | dose-dependent increase in response; also recorded: high affinity binding to its target |
